The values that follow come from PMC10623010 (Proceedings of the National Academy of Sciences of the …, 2023).

The experiment deals with T1, recombinant human lipoprotein lipase (hLPL) (human, UniProt P06858 28-475).
T1 sequence: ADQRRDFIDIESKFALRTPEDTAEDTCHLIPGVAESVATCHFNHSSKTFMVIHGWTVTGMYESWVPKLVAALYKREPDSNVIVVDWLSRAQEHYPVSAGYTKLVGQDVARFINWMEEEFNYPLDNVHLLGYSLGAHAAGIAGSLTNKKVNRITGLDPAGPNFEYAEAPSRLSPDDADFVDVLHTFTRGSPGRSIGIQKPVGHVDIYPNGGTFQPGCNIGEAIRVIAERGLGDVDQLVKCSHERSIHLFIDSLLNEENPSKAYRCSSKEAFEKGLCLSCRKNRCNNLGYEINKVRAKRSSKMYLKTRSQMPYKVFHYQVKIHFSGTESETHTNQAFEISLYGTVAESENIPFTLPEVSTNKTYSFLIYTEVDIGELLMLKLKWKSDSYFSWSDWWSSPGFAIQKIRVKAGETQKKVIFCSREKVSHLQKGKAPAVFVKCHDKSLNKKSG
The experiment can be described thus: pull-down.

B1: recombinant mouse GPIHBP1 (mGPIHBP1) (natural protein)
chain: QEDGDADPEPENYNYDDDDDEEEEEETNMIPGSRDRAPLQCYFCQVLHSGESCNQTQSCSSSKPFCITLVSHSGTDKGYLTTYSMWCTDTCQPIIKTVGGTQMTQTCCQSTLCNIPPWQNPQVQNPLGGRADSPLESGTRHPQGGKFSHPQVVKAAHPQSDGANLPKSGKANQPQG
Consider B1, for which the binding result is recorded as “binds”.
